Laboratory results taken from patent publication US20220073608A1 (JIANGSU HUAIYU PHARMACEUTICAL, published 2022).
Substitutions are numbered along the chain they refer to.

T1: biotinylated hSEMA4D ECD-His (human, UniProt Q92854 22-734, biotinylated with Biotin-X-X-NHS at a molar ratio of 8:1; sites not stated)
T1 construct: also called biotinylated immunogen; not shown: His tag of the pCP vector
T1 sequence: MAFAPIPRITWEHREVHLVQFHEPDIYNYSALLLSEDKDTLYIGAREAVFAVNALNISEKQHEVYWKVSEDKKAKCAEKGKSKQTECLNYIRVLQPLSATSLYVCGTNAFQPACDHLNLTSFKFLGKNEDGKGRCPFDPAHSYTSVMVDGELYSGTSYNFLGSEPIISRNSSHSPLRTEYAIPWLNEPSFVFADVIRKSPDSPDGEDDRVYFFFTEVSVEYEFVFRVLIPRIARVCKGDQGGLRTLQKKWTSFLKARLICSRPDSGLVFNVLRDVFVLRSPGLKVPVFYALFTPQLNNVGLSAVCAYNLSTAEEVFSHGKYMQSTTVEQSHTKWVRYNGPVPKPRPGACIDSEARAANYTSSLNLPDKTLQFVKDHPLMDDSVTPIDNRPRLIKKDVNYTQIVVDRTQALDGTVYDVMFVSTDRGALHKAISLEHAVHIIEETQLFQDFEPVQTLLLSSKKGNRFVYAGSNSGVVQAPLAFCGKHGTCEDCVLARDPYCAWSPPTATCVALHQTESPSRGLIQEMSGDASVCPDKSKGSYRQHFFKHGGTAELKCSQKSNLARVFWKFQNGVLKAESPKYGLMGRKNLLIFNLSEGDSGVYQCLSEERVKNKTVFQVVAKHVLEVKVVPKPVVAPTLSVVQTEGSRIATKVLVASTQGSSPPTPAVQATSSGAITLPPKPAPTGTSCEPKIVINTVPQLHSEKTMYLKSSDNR

B1: 32C8F10 (antibody, V domains shown)
VH: EVQLQQSGAELVRPGASVKLSCTASGFNIKDEYIHWVKQRPEQGLEWIGWIDPANGHTEYASRFQAKATITADTSSNTAYLQLSSLTSEDTAVYYCTTGDYDGFAYWGQGTLVTVST
VL: QIVLTQSPAIMSASPGEKVTISCSARSSVSYMYWYQQKPGSSPKPWIYRTSNLASGVPARFSGSGSGTSYSLTISSMEAEDAATYYCQHYHTYPYTFGGGTKLEIK
notes: Mouse monoclonal antibody purified from hybridoma supernatant on protein A
B2: 31G10C5 (antibody, V domains shown)
VH: B1 VH with E32D, T58I, R63N, A105T
VL: B1 VL
notes: as for B1
B3: 31C11G2 (antibody, V domains shown)
VH: B1 VH with A105V
VL: B1 VL with S22F
notes: as for B1

What follows are binders tested against T1, biotinylated hSEMA4D ECD-His (assay: FACS, blocking of biotinylated hSEMA4D ECD-His binding to 293F hPlexin B1 cells; Ab 2.67 nM).
Method: (§1) The medium was aspirated, the cells were washed once with PBS buffer (purchased from Invitrogen), and then treated with cell dissociation fluid (TrypLE™ Express Enzyme, purchased from Life technology), and the cells were collected. After the cells counted, the cells were washed once with PBS phosphate buffer, and diluted to 1×10⁶ cells per milliliter, and added to the 96-well FACS reaction plate as 100 μL per well. 2% (w/w) fetal calf serum was added to PBS phosphate buffer as FACS buffer, with which the cells were washed once by centrifugation at 2000 rpm 4° C. Meanwhile, the purified leading antibody and biotinylated hSEMA4D ECD-His were mixed and incubated on ice for 30 minutes. Then 100 μL of the mixture was added to each well and the plate was incubated on ice for 1 hour. […] Cells were washed 2 times by centrifugation with FACS buffer. The cells were suspended with 200 μL of FACS buffer, and FACS (FACS Verse, purchased from BD) was used to detect and analyze the results. The results are shown in FIGS. 11A-11B and Tables 20-21.

| MFI (residual ligand binding) | Binder |
| --- | --- |
| 333 | B1 |
| 334 | B2 |
| 415 | B3 |

Each binder was assayed against T1, biotinylated hSEMA4D ECD-His (assay: FACS, blocking of biotinylated hSEMA4D ECD-His binding to 293F hPlexin B1 cells; Ab 333 nM).
Method: as §1

| MFI (residual ligand binding) | Binder |
| --- | --- |
| 85.1 | B1 |
| 45.4 | B2 |
| 50.8 | B3 |

The binders below were run against T1, biotinylated hSEMA4D ECD-His (assay: FACS, blocking of biotinylated hSEMA4D ECD-His binding to 293F hPlexin B1 cells; Ab 0.0213 nM).
Method: as §1

| MFI (residual ligand binding) | Binder |
| --- | --- |
| 463 | B1 |
| 466 | B2 |
| 547 | B3 |

These binders were tested against T1, biotinylated hSEMA4D ECD-His (assay: FACS, blocking of biotinylated hSEMA4D ECD-His binding to 293F hPlexin B1 cells; Ab 0.00427 nM).
Method: as §1

| MFI (residual ligand binding) | Binder |
| --- | --- |
| 471 | B1 |
| 470 | B2 |
| 544 | B3 |

What follows are binders tested against T1, biotinylated hSEMA4D ECD-His (assay: FACS, blocking of biotinylated hSEMA4D ECD-His binding to 293F hPlexin B1 cells; Ab 0.534 nM).
Method: as §1

| MFI (residual ligand binding) | Binder |
| --- | --- |
| 420 | B1 |
| 427 | B2 |
| 513 | B3 |

These binders were tested against T1, biotinylated hSEMA4D ECD-His (assay: FACS, blocking of biotinylated hSEMA4D ECD-His binding to 293F hPlexin B1 cells; Ab 0.107 nM).
Method: as §1

| MFI (residual ligand binding) | Binder |
| --- | --- |
| 454 | B1 |
| 460 | B2 |
| 530 | B3 |

What follows are binders tested against T1, biotinylated hSEMA4D ECD-His (assay: FACS, blocking of biotinylated hSEMA4D ECD-His binding to 293F hPlexin B1 cells; Ab 66.7 nM).
Method: as §1

| MFI (residual ligand binding) | Binder |
| --- | --- |
| 55.5 | B1 |
| 54.2 | B2 |
| 54.2 | B3 |

These binders were tested against T1, biotinylated hSEMA4D ECD-His (assay: FACS, blocking of biotinylated hSEMA4D ECD-His binding to 293F hPlexin B1 cells; Ab 13.3 nM).
Method: as §1

| MFI (residual ligand binding) | Binder |
| --- | --- |
| 204 | B1 |
| 209 | B2 |
| 266 | B3 |
